Data on 5 sequences can be found in the supplement of paper PMC5998384.

Data set [1] relates to HeLa Kyoto. Briefly: thermal stability score vs G1/S (z-score of summed log2 fold changes over temperatures); higher = more thermally stable than in G1/S.
The subject of data set [2] is HeLa Kyoto. Briefly: solubility change mitosis vs G1/S (difference of NP-40 vs SDS log2 ratios) (log2 ratio difference); higher = more soluble in mitosis.
For data set [3], the system named is HeLa Kyoto. Briefly: solubility in G1/S (NP-40 vs SDS abundance) (log2 ratio); higher = more soluble. The settings on record: cell cycle stage: G1/S.
The mark [4] stands for this setting: cell cycle stage: early G1 (4.5 h after nocodazole release).
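Throughout, for solubility change mitosis vs G1/S (difference of NP-40 vs SDS log2 ratios): synchronized HeLa Kyoto cells (double thymidine block for G1/S, nocodazole release for mitosis), protein amounts in NP-40 versus SDS lysates quantified by mass spectrometry, three biological replicates.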
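Throughout, for solubility in G1/S (NP-40 vs SDS abundance): HeLa Kyoto cells arrested at G1/S by double thymidine block, proteins quantified by TMT10plex mass spectrometry in mild NP-40 versus SDS extracts, three biological replicates.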
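Throughout, for thermal stability score vs G1/S (z-score of summed log2 fold changes over temperatures): synchronized HeLa Kyoto cells, proteins quantified by TMT10plex mass spectrometry, three biological replicates, mitosis taken 0.5 h after nocodazole release, G1/S directly after double thymidine block.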

For the sequence “MATIEEIAHQIIEQQMGEIVTEQQTGQKIQIVTALDHNTQGKQFILTNHDGSTPSKVILARQDSTPGKVFLTTPDAAGVNQLFFTTPDLSAQHLQLLTDNSPDQGPNKVFDLCVVCGDKASGRHYGAVTCEGCKGFFKRSIRKNLVYSCRGSKDCIINKHHRNRCQYCRLQRCIAFGMKQDSVQCERKPIEVSREKSSNCAASTEKIYIRKDLRSPLTATPTFVTDSESTRSTGLLDSGMFMNIHPSGVKTESAVLMTSDKAESCQGDLSTLANVVTSLANLGKTKDLSQNSNEMSMIESLSNDDTSLCEFQEMQTNGDVSRAFDTLAKALNPGESTACQSSVAGMEGSVHLITGDSSINYTEKEGPLLSDSHVAFRLTMPSPMPEYLNVHYIGESASRLLFLSMHWALSIPSFQALGQENSISLVKAYWNELFTLGLAQCWQVMNVATILATFVNCLHNSLQQDKMSTERRKLLMEHIFKLQEFCNSMVKLCIDGYEYAYLKAIVLFSPDHPSLENMEQIEKFQEKAYVEFQDYITKTYPDDTYRLSRLLLRLPALRLMNATITEELFFKGLIGNIRIDSVIPHILKMEPADYNSQIIGHSI [NR2C1]”, the results for the thermal stability score in data set [1] (setting [4]) and in data set [1] (cell cycle stage: mitosis) were 0.319 and 0.185, respectively. Besides, the “solubility change mitosis (log2)” value in data set [2] is -0.0241. In addition, the “solubility in G1/S (log2)” value in data set [3] came out at 0.173.
In the same order, the values of “MLLWPLRGWAARALRCFGPGSRGSPASGPGPRRVQRRAWPPDKEQEKEKKSVICVEGNIASGKTTCLEFFSNATDVEVLTEPVSKWRNVRGHNPLGLMYHDASRWGLTLQTYVQLTMLDRHTRPQVSSVRLMERSIHSARYIFVENLYRSGKMPEVDYVVLSEWFDWILRNMDVSVDLIVYLRTNPETCYQRLKKRCREEEKVIPLEYLEAIHHLHEEWLIKGSLFPMAAPVLVIEADHHMERMLELFEQNRDRILTPENRKHCP [TK2]” are -2.93, -2.11, 0.0925 and -0.273.
In the same order, the values of “MSWLFGVNKGPKGEGAGPPPPLPPAQPGAEGGGDRGLGDRPAPKDKWSNFDPTGLERAAKAARELEHSRYAKEALNLAQMQEQTLQLEQQSKLKEYEAAVEQLKSEQIRAQAEERRKTLSEETRQHQARAQYQDKLARQRYEDQLKQQQLLNEENLRKQEESVQKQEAMRRATVEREMELRHKNEMLRVETEARARAKAERENADIIREQIRLKASEHRQTVLESIRTAGTLFGEGFRAFVTDRDKVTATVAGLTLLAVGVYSAKNATAVTGRFIEARLGKPSLVRETSRITVLEALRHPIQVSRRLLSRPQDVLEGVVLSPSLEARVRDIAIATRNTKKNRGLYRHILLYGPPGTGKTLFAKKLALHSGMDYAIMTGGDVAPMGREGVTAMHKLFDWANTSRRGLLLFMDEADAFLRKRATEEISKDLRATLNAFLYHMGQHSNKFMLVLASNLPEQFDCAINSRIDVMVHFDLPQQEERERLVRLHFDNCVLKPATEGKRRLKLAQFDYGRKCSEVARLTEGMSGREIAQLAVSWQATAYASKDGVLTEAMMDACVQDAVQQYRQKMRWLKAEGPGRGVEHPLSGVQGETLTSWSLATDPSYPCLAGPCTFRICSWMGTGLCPGPLSPRMSCGGGRPFCPPGHPLL [ATAD3B]” are 0.595, 0.439, -0.00813 and -0.105.
In the case of “MGDMKTPDFDDLLAAFDIPDPTSLDAKEAIQTPSEENESPLKPPGICMDESVSLSHSGSAPDVPAVSVIVKNTSRQESFEAEKDHITPSLLHNGFRGSDLPPDPHNCGKFDSTFMNGDSARSFPGKLEPPKSEPLPTFNQFSPISSPEPEDPIKDNGFGIKPKHSDSYFPPPLGCGAVGGPVLEALAKFPVPELHMFDHFCKKEPKPEPLPLGSQQEHEQSGQNTVEPHKDPDATRFFGEALEFNSHPSNSIGESKGLARELGTCSSVPPRQRLKPAHSKLSSCVAALVALQAKRVASVTKEDQPGHTKDLSGPTKESSKGSPKMPKSPKSPRSPLEATRKSIKPSDSPRSICSDSSSKGSPSVAASSPPAIPKVRIKTIKTSSGEIKRTVTRILPDPDDPSKSPVGSPLGSAIAEAPSEMPGDEVPVEEHFPEAGTNSGSPQGARKGDESMTKASDSSSPSCSSGPRVPKGAAPGSQTGKKQQSTALQASTLAPANLLPKAVHLANLNLVPHSVAASVTAKSSVQRRSQPQLTQMSVPLVHQVKKAAPLIVEVFNKVLHSSNPVPLYAPNLSPPADSRIHVPASGYCCLECGDAFALEKSLSQHYGRRSVHIEVLCTLCSKTLLFFNKCSLLRHARDHKSKGLVMQCSQLLVKPISADQMFVSAPVNSTAPAAPAPSSSPKHGLTSGSASPPPPALPLYPDPVRLIRYSIKCLECHKQMRDYMVLAAHFQRTTEETEGLTCQVCQMLLPNQCSFCAHQRIHAHKSPYCCPECGVLCRSAYFQTHVKENCLHYARKVGYRCIHCGVVHLTLALLKSHIQERHCQVFHKCAFCPMAFKTASSTADHSATQHPTQPHRPSQLIYKCSCEMVFNKKRHIQQHFYQNVSKTQVGVFKCPECPLLFVQKPELMQHVKSTHGVPRNVDELSSLQSSADTSSSRPGSRVPTEPPATSVAARSSSLPSGRWGRPEAHRRVEARPRLRNTGWTCQECQEWVPDRESYVSHMKKSHGRTLKRYPCRQCEQSFHTPNSLRKHIRNNHDTVKKFYTCGYCTEDSPSFPRPSLLESHISLMHGIRNPDLSQTSKVKPPGGHSPQVNHLKRPVSGVGDAPGTSNGATVSSTKRHKSLFQCAKCSFATDSGLEFQSHIPQHQVDSSTAQCLLCGLCYTSASSLSRHLFIVHKVRDQEEEEEEEAAAAEMAVEVAEPEEGSGEEVPMETRENGLEECAGEPLSADPEARRLLGPAPEDDGGHNDHSQPQASQDQDSHTLSPQV [ZNF592]”, the thermal stability score in data set [1] (setting [4]) is -0.704; in data set [1] (cell cycle stage: mitosis) it was -1.78. Besides, in data set [2], the “solubility change mitosis (log2)” value turned out to be 0.109. The “solubility in G1/S (log2)” value in data set [3] was -0.283.
Turning to “MAGFAELGLSSWLVEQCRQLGLKQPTPVQLGCIPAILEGRDCLGCAKTGSGKTAAFVLPILQKLSEDPYGIFCLVLTPTRELAYQIAEQFRVLGKPLGLKDCIIVGGMDMVAQALELSRKPHVVIATPGRLADHLRSSNTFSIKKIRFLVMDEADRLLEQGCTDFTVDLEAILAAVPARRQTLLFSATLTDTLRELQGLATNQPFFWEAQAPVSTVEQLDQRYLLVPEKVKDAYLVHLIQRFQDEHEDWSIIIFTNTCKTCQILCMMLRKFSFPTVALHSMMKQKERFAALAKFKSSIYRILIATDVASRGLDIPTVQVVINHNTPGLPKIYIHRVGRTARAGRQGQAITLVTQYDIHLVHAIEEQIKKKLEEFSVEEAEVLQILTQVNVVRRECEIKLEAAHFDEKKEINKRKQLILEGKDPDLEAKRKAELAKIKQKNRRFKEKVEETLKRQKAGRAGHKGRPPRTPSGSHSGPVPSQGLV [DDX49]”, the thermal stability score came to 2.1 in data set [1] (setting [4]) and 1.97 in data set [1] (cell cycle stage: mitosis). Besides, the “solubility change mitosis (log2)” value in data set [2] is -0.0629. In addition, in data set [3], the “solubility in G1/S (log2)” value is -0.148.
